Biological target: Recombinant HIV-1 integrase from pRP1012 with the His6 tag removed by thrombin (HIV-1) (UniProt P04585)
Assay: cell-based or functional assay

## His6-tagged Inip76/LEDGF expressed in E. coli from pCP6H75 (pRSETB) (from UniProt O75475 2-530)
  IN protein remaining soluble after 45 minutes incubation at 4° C. and centrifugation at 20000 g: 50%
